The first assay concerns CD8+ T-cells. As to the kind of experiment: In vitro T-cell priming assay with aAPCs loaded with peptide/MHC and anti-CD28, pMHC multimer readout. It counts as cell-based, human. The conditions noted are these: HLA-A*02 restricted peptides; positive wells among evaluable. An excerpt:
In order to obtain information regarding the immunogenicity of the TUMAPs of the present invention, the inventors performed investigations using an in vitro T-cell priming assay based on repeated stimulations of CD8+ T-cells with artificial antigen presenting cells (aAPCs) loaded with peptide/MHC complexes and anti-CD28 antibody.
In order to perform in vitro stimulations by artificial antigen presenting cells loaded with peptide-MHC complex (pMHC) and anti-CD28 antibody, the inventors first isolated CD8+ T-cells from fresh HLA-A*02 leukapheresis products via positive selection using CD8 microbeads (Miltenyi Biotec, Bergisch-Gladbach, Germany) of healthy donors obtained from the University clinics Mannheim, Germany, after informed consent.
PBMCs and isolated CD8+ lymphocytes were incubated in T-cell medium (TCM) until use consisting of RPMI-Glutamax (Invitrogen, Karlsruhe, Germany) supplemented with 10% heat inactivated human AB serum (PAN-Biotech, Aidenbach, Germany), 100 U/ml Penicillin/100 μg/ml Streptomycin (Cambrex, Cologne, Germany), 1 mM sodium pyruvate (CC Pro, Oberdorla, Germany), 20 μg/ml Gentamycin (Cambrex). 2.5 ng/ml IL-7 (PromoCell, Heidelberg, Germany) and 10 U/ml IL-2 (Novartis Pharma, Nürnberg, Germany) were also added to the TCM at this step.
Generation of pMHC/anti-CD28 coated beads, T-cell stimulations and readout was performed in a highly defined in vitro system using four different pMHC molecules per stimulation condition and 8 different pMHC molecules per readout condition.
The purified co-stimulatory mouse IgG2a anti human CD28 Ab 9.3 (Jung et al., 1987) was chemically biotinylated using Sulfo-N-hydroxysuccinimidobiotin as recommended by the manufacturer (Perbio, Bonn, Germany). Beads used were 5.6 μm diameter streptavidin coated polystyrene particles (Bangs Laboratories, Illinois, USA).
800.000 beads/200 μl were coated in 96-well plates in the presence of 4×12.5 ng different biotin-pMHC, washed and 600 ng biotin anti-CD28 were added subsequently in a volume of 200 μl. Stimulations were initiated in 96-well plates by co-incubating 1×10^6 CD8+ T-cells with 2×10^5 washed coated beads in 200 μl TCM supplemented with 5 ng/ml IL-12 (PromoCell) for 3 days at 37° C. Half of the medium was then exchanged by fresh TCM supplemented with 80 U/ml IL-2 and incubating was continued for 4 days at 37° C. This stimulation cycle was performed for a total of three times. For the pMHC multimer readout using 8 different pMHC molecules per condition, a two-dimensional combinatorial coding approach was used as previously described (Andersen et al., 2012) with minor modifications encompassing coupling to 5 different fluorochromes. Finally, multimeric analyses were performed by staining the cells with Live/dead near IR dye (Invitrogen, Karlsruhe, Germany), CD8-FITC antibody clone SK1 (BD, Heidelberg, Germany) and fluorescent pMHC multimers. For analysis, a BD LSRII SORP cytometer equipped with appropriate lasers and filters was used. Peptide specific cells were calculated as percentage of total CD8+ cells. Evaluation of multimeric analysis was done using the FlowJo software (Tree Star, Oreg., USA). In vitro priming of specific multimer+ CD8+ lymphocytes was detected by comparing to negative control stimulations.
In the case of “3 (RLIPDTLYSV; listed as Homo sapiens) [compound 3]”, the “Wells positive [%]” value is reported as ““+++” (50%-69% = +++)”.

In a further assay the target is HLA-A*02:01 (Homo sapiens, UniProt P04439, D140Y/D185E/D98H/E176V/E277Q/G131W/G231S/I119V/I121R/I166T/I218V/L300P/L318F/N151K/N90K/P208A/P217A/Q86G/Q94H/R138H/R169H/T345S). As to the kind of experiment: MHC binding assay (UV-ligand exchange, beta2m ELISA, peptide exchange yield). The conditions noted are these: binding to HLA-A*02:01. An excerpt: Candidate peptides for T cell based therapies according to the present invention were further tested for their MHC binding capacity (affinity). The individual peptide-MHC complexes were produced by UV-ligand exchange, where a UV-sensitive peptide is cleaved upon UV-irradiation, and exchanged with the peptide of interest as analyzed. Only peptide candidates that can effectively bind and stabilize the peptide-receptive MHC molecules prevent dissociation of the MHC complexes. To determine the yield of the exchange reaction, an ELISA was performed based on the detection of the light chain ([…]) of stabilized MHC complexes. The assay was performed as generally described in Rodenko et al. (Rodenko et al., 2006).
96 well MAXISorp plates (NUNC) were coated over night with 2 ug/ml streptavidin in PBS at room temperature, washed 4× and blocked for 1 h at 37° C. in 2% BSA containing blocking buffer. Refolded HLA-A*02:01/MLA-001 monomers served as standards, covering the range of 15-500 ng/ml. Peptide-MHC monomers of the UV-exchange reaction were diluted 100 fold in blocking buffer. Samples were incubated for 1 h at 37° C., washed four times, incubated with 2 ug/ml HRP conjugated anti-β2m for 1 h at 37° C., washed again and detected with TMB solution that is stopped with […]. Absorption was measured at 450 nm. Candidate peptides that show a high exchange yield (preferably higher than 50%, most preferred higher than 75%) are generally preferred for a generation and production of antibodies or fragments thereof, and/or T cell receptors or fragments thereof, as they show sufficient avidity to the MHC molecules and prevent dissociation of the MHC complexes.
For the substance “90 (GLLKPGLNVVL; listed as Homo sapiens) [compound 90]”, the “Peptide exchange (MHC class I binding score, peptide exchange yield)” value (from here on “Peptide exchange”) is ““+++” (≥50 = +++)”. Turning to “153 (ILFSEDSTKLFV; listed as Homo sapiens) [compound 153]”, the “Peptide exchange” value is ““+++” (≥50 = +++)”.

As for “51 (QVWEIQHTV; listed as Homo sapiens) [compound 51]”, the “Peptide exchange” value is given as ““++” (≥20% = ++)”. For the substance “4 (RLAELTVDEFL; listed as Homo sapiens) [compound 4]”, the “Peptide exchange” value is listed as ““+++” (≥50 = +++)”.

In the case of “57 (NLLEKENYL; listed as Homo sapiens) [compound 57]”, the “Peptide exchange” value is given as ““+++” (≥50 = +++)”.

Consider “109 (ALDGDQMEL; listed as Homo sapiens) [compound 109]”, for which the “Peptide exchange” value is given as ““++” (≥20% = ++)”. For the substance “165 (RLLDFPEAMVL; listed as Homo sapiens) [compound 165]”, the “Peptide exchange” value was ““++++” (≥75% = ++++)”. Still for that read-out and setting: the same measure for “112 (KLGQVLIYL; listed as Homo sapiens) [compound 112]”: ““++” (≥20% = ++)”; for “126 (TLAKYLMEL; listed as Homo sapiens) [compound 126]”: ““+++” (≥50 = +++)”; for “76 (YLIGEKQHYL; listed as Homo sapiens) [compound 76]”: ““+++” (≥50 = +++)”.

In the case of “166 (GLLEARGILGL; listed as Homo sapiens) [compound 166]”, the “Peptide exchange” value is listed as ““+++” (≥50 = +++)”.

Turning to “156 (SLMMTIINL; listed as Homo sapiens) [compound 156]”, the “Peptide exchange” value is on record as ““++++” (≥75% = ++++)”.

With “15 (LQLDKEFQL; listed as Homo sapiens) [compound 15]”, the “Peptide exchange” value was ““+++” (≥50 = +++)”. As to “122 (SLMGMVLKL; listed as Homo sapiens) [compound 122]”, the “Peptide exchange” value is given as ““+++” (≥50 = +++)”.

Consider “85 (ILHDINSDGVL; listed as Homo sapiens) [compound 85]”, for which the “Peptide exchange” value is on record as ““++” (≥20% = ++)”. Take “179 (RLLSPLSSA; listed as Homo sapiens) [compound 179]”: the “Peptide exchange” value is ““+++” (≥50 = +++)”. Still for that read-out and setting: the same measure for “149 (YQFDKVGILTL; listed as Homo sapiens) [compound 149]”: ““+++” (≥50 = +++)”.

On to “40 (ALSNVIHKV; listed as Homo sapiens) [compound 40]”, for which the “Peptide exchange” value was ““++” (≥20% = ++)”. On to “121 (SLAPNIISQL; listed as Homo sapiens) [compound 121]”, for which the “Peptide exchange” value is given as ““+++” (≥50 = +++)”. Take “110 (LLGELPRLLLL; listed as Homo sapiens) [compound 110]”: the “Peptide exchange” value is ““+++” (≥50 = +++)”. Consider “137 (QLTEIKPLL; listed as Homo sapiens) [compound 137]”, for which the “Peptide exchange” value is listed as ““+++” (≥50 = +++)”.

In the case of “99 (KLLEVDLDTV; listed as Homo sapiens) [compound 99]”, the “Peptide exchange” value is reported as ““+++” (≥50 = +++)”. “84 (SMVEDITGLRL; listed as Homo sapiens) [compound 84]”: the “Peptide exchange” value is on record as ““+++” (≥50 = +++)”. For the substance “167 (SVIDHIHLISV; listed as Homo sapiens) [compound 167]”, the “Peptide exchange” value was ““+++” (≥50 = +++)”. In the case of “163 (RLLHEVQEL; listed as Homo sapiens) [compound 163]”, the “Peptide exchange” value is ““+++” (≥50 = +++)”. Regarding “155 (RLLGEEVVRV; listed as Homo sapiens) [compound 155]”, the “Peptide exchange” value is ““+++” (≥50 = +++)”. Regarding “118 (LLADLKTMV; listed as Homo sapiens) [compound 118]”, the “Peptide exchange” value is given as ““+++” (≥50 = +++)”. The same measure, in the same setting: the same measure for “56 (VLFTDEGVPKFL; listed as Homo sapiens) [compound 56]”: ““++” (≥20% = ++)”. Take “160 (KLLEFDQLQL; listed as Homo sapiens) [compound 160]”: the “Peptide exchange” value is reported as ““+++” (≥50 = +++)”.

On to “184 (SLLDENNVSSYL; listed as Homo sapiens) [compound 184]”, for which the “Peptide exchange” value is reported as ““+++” (≥50 = +++)”. On the same count and under the same terms, the same measure for “78 (ALDPELLLL; listed as Homo sapiens) [compound 78]”: ““++” (≥20% = ++)”. “129 (VLIDVLKEL; listed as Homo sapiens) [compound 129]”: the “Peptide exchange” value was ““+++” (≥50 = +++)”. For “157 (SLIERDLKL; listed as Homo sapiens) [compound 157]”, the “Peptide exchange” value was ““+++” (≥50 = +++)”. On to “172 (LLLDTVTMQV; listed as Homo sapiens) [compound 172]”, for which the “Peptide exchange” value is given as ““+++” (≥50 = +++)”. Regarding “26 (GLASKENFSNVSL; listed as Homo sapiens) [compound 26]”, the “Peptide exchange” value is given as ““++” (≥20% = ++)”. Turning to “75 (EMIENIQSV; listed as Homo sapiens) [compound 75]”, the “Peptide exchange” value is ““++” (≥20% = ++)”.

For “161 (FLKNELDNV; listed as Homo sapiens) [compound 161]”, the “Peptide exchange” value was ““+++” (≥50 = +++)”. The same measure, in the same setting: the same measure for “190 (AMAEMVLQV; listed as Homo sapiens) [compound 190]”: ““+++” (≥50 = +++)”; for “128 (MLDDRAYLV; listed as Homo sapiens) [compound 128]”: ““++” (≥20% = ++)”; for “50 (TLMAEMHVV; listed as Homo sapiens) [compound 50]”: ““+++” (≥50 = +++)”. Regarding “73 (YLFDIAVSM; listed as Homo sapiens) [compound 73]”, the “Peptide exchange” value is given as ““+++” (≥50 = +++)”.

The values are drawn from patent publication US10513547B2, “Peptides and combination of peptides and scaffolds thereof for use in immunotherapy against colorectal carcinoma (CRC) and other cancers” (Immatics Biotechnologies GmbH, priority 2015, dated 2019).
